Measurements taken from patent publication US20240100176A1 (Eli Lilly, published 2024).

B1: anti-human IL-4Rα antibody Ab1 (antibody, human IgG4 S228P, kappa)
heavy: QVQLVESGGGLVQPGGSLRLSCVASGFTFSHSSMNWVRQAPGKGLEWVSYISRATGAVYYADSVKGRFTISRDNAKNSLYLQMNSLRDEDTAVYYCAREPVFDYWGQGTLVTVSSASTKGPCVFPLAPCSRSTSESTAALGCLVKDYFPEPVTVSWNSGALTSGVHTFPAVLQSSGLYSLSSVVTVPSSSLGTKTYTCNVDHKPSNTKVDKRVESKYGPPCPPCPAPEFLGGPSVFLFPPKPKDTLMISRTPEVTCVVVDVSQEDPEVKFNWYVDGVEVHNAKTKPREEQFNSTYRVVSVLTVLHQDWLNGKEYKCKVSNKGLPSSIEKTISKAKGQPREPQVYTLPPSREEMTKNQVSLTCLVKGFYPSDICVEWESNGQPENNYKTTPPVLDSDGSFFLYSRLTVDKSRWQQGNVFSCSVMHEALHNHYTQKSLSLSLG
light: DIQMTQSPSAMSASVGDRVTITCRASQDISNYLAWFQQKPGKVPTRLIYAASSLQSGVPSRFSGSGSGTEFTLTISSLQPEDFATYYCLQWSSYPRTFGQGTKVEIKRTVAAPSVFIFPPSDEQLKSGTASVVCLLNNFYPREAKVQWKVDNALQSGNSQESVTEQDSKDSTYSLSSTLTLSKADYEKHKVYACEVTHQGLSSPVTKSFNRGEC
notes: human kappa light chain; also called anti-human IL-4Rα Ab1; unconjugated Ab1
B2: anti-human IL-4Rα Ab1 GC conjugate of Example 1b (n=4) (antibody, human IgG4 S228P, kappa)
heavy: B1 heavy
light: B1 light
modifications: glucocorticoid receptor agonist payload-linker (GC-L, Preparation 8) conjugated to the engineered cysteines at the 124 and 378 position of the heavy chain (EU numbering); n is 4 (average DAR 4.17 by RP-HPLC, 3.85 by TOF MS)

Columns and labels:
[1] = target: T1, hexahistidine tagged human IL-4Rα ECD T108R (human, UniProt P24394 26-232); assay: capture ELISA: Ab1 on anti-human IgG Fc, His-tagged receptor at 0.04 µg/mL, anti-His HRP
T1 construct: also called D108R; not shown: hexahistidine tag

[2] = target: T2, human FcγRI (CD64) extracellular domain (human, UniProt P12314 16-292); assay: SPR (Biacore), antibody captured on protein A, FcγR ECD as analyte, 25 °C
T2 construct: extracellular domain
Experimental: Unreacted sites were blocked with a 7 minute injection of ethanolamine at 10 μL/minute. Injections of 2×10 μL of glycine, pH 1.5, was used to remove any noncovalently associated protein. Running buffer was 1×HBS-EP+(TEKNOVA, P/N H8022). The FcγR extracellular domains (ECDs)-FcγRI (CD64), FcγRIIA_131R, and FcγRIIA_131H (CD32a), FcγRIIIA_158V, FcγRIIIA_158F (CD16a), and FcγRIIb (CD32b) were produced from stable CHO cell expression and purified using IgG Sepharose and size exclusion chromatography. For FcγRI binding, antibodies were diluted to […] in running buffer, and approximately 150 RU of each antibody was captured in FCs 2 through 4 (RU captured). FC1 was the reference FC, therefore no antibody was captured in FC1. […] Duplicate injections of each concentration were injected over all FCs at 40 μL/minute for 120 seconds followed by a 1200 second dissociation phase. Regeneration was performed by injecting 15 μL of 10 mM glycine, pH 1.5, at 30 μL/minute over all FCs. […] The affinity (KD) was calculated using either steady state equilibrium analysis with the Scrubber 2 Biacore Evaluation Software or a “1:1 (Langmuir) binding” model in BIA Evaluation. […] The affinity (KD) was calculated using the steady state equilibrium analysis with the Scrubber 2 Biacore Evaluation Software. […]

T2 sequence (P12314 16-292): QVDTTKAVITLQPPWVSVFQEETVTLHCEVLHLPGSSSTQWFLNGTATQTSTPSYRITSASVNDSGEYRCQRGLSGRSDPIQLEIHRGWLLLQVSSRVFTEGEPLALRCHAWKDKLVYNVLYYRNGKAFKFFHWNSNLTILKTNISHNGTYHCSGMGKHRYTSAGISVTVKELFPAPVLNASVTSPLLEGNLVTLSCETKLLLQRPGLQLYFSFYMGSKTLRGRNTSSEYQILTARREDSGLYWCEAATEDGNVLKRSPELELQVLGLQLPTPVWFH

Binder | ELISA (OD450) [1] [OD450] | Kd [2] [nM]
B1 | 1.41 | –
B2 | – | 0.64
